Here are results for two molecules from PMC6660512.

Assay [1] addresses Nogo-A Δ20 (Rattus norvegicus) (UniProt Q9JK11). The note with it: cited from earlier work.
The next assay concerns the target His-tagged Nogo-A-Δ20. Description: MST; Nanotemper Monolith NT.115, as described in ref. 29; SPARC and Nogo-A-Δ20 (Suppl. Figure 4m).

For orientation: Kd means the free concentration of one partner at which half of the binding sites on the other are occupied at equilibrium, for simple one-to-one binding.

Sequence of UniProt Q9JK11 (Q9JK11 544-725, stated change not applied): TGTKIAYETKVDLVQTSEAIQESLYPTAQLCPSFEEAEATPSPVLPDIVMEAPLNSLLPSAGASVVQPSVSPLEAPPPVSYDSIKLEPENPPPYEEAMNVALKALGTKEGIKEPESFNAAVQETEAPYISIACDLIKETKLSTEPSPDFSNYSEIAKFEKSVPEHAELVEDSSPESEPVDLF

On to S1PR2 (from UniProt O95136), for which, in assay [1], the Kd is 280 nM.

B1: SPARC (construct used for microscale thermophoresis not stated) (natural protein)
chain: APQQEALPDETEVVEETVAEVTEVSVGANPVQVEVGEFDDGAEETEEEVVAENPCQNHHCKHGKVCELDENNTPMCVCQDPTSCPAPIGEFEKVCSNDNKTFDSSCHFFATKCTLEGTKKGHKLHLDYIGPCKYIPPCLDSELTEFPLRMRDWLKNVLVTLYERDEDNNLLTEKQKLRVKKIHENEKRLEAGDHPVELLARDFEKNYNMYIFPVHWQFGQLDQHPIDGYLSHTELAPLRAPLIPMEHCTTRFFETCDLDNDKYIALDEWAGCFGIKQKDIDKDLVI
Molecule B1 had a Kd with His-tagged Nogo-A-Δ20 of 150 nM.
